In test [1] the target is T1, rh-IL-8 72 aa form, monocyte derived (human, UniProt P10145 28-99).
T1 construct: mature; also called IL-8M; IL-8Mpepretech
T1 sequence (looked up): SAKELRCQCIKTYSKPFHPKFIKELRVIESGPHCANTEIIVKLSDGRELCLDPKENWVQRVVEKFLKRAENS
Put plainly: cell-based or functional assay.

For test [2], the target named is recombinant human IL-8 (form not stated for this assay) (human) (UniProt P10145). Put plainly: competition: varying murine anti-IL-8 antibody against 0.25 nM [125I]-rhIL-8 binding to IL-8 receptors (CXCR1, CXCR2) on human neutrophils, filter plate, gamma counting; x axis printed 'IL-8 (nM)'.
For test [3], the target named is T2, recombinant human IL-8 (form not stated for this assay) (human, UniProt P10145 28-99, limits assumed).
T2 construct: also called rhIL-8
T2 sequence (looked up): T1 sequence (looked up)
Put plainly: SPR, BIAcore 3000, IL-8 amine-coupled on CM-5 chip, 37° C. The method, then:
(§1) Affinity constants for 10F8 Fab were determined and compared with corresponding values of 10F8 IgG1,κ. Whole IgG molecules lead to rebinding effects during the dissociation phase of experimental procedures to determine the affinity constants, thus leading to an apparently lower dissociation rate constant and in turn, much higher affinity constant. To eliminate these artifactual avidity effects, Fab molecules were used in the place of IgG1,κ to determine the affinity and rate constants. A CM-5 chip was used to immobilize IL-8 via amine coupling.
(In general: SPR reads the build-up and loss of mass on a sensor chip optically.)

In test [4] the target is T2, recombinant human IL-8 (form not stated …). The experiment in a line: SPR, BIAcore 3000, IL-8 amine-coupled on CM-5 chip, 25° C.; half-life of the complex. The method, then: as §1
The target in test [5] is T1, rh-IL-8 72 aa form, monocyte derived. Put plainly: ELISA, plate coated with 1 µg/mL rh-IL-8 72 aa form (curve IL-8M), HuMab 10F8 titrated 1:3 from 20 µg/mL, HRP anti-human IgG, A405. Here is the method:
(§2) Possible cross-reactivity of HuMab 10F8 clone towards other chemokines was evaluated by ELISA. Briefly, microtiter ELISA plates (Greiner, Germany) were coated overnight at room temperature (RT) with 1 μg/mL of recombinant human (rh) GRO-α, rh-GRO-β, rh-IP-10, rh-IL-8 72 aa form, which is monocyte derived (IL-8M or IL-8Mpepretech) or rh-IL-8 77 aa form (IL-8E), which is endothelial cell derived, 100 μl per well. Plates were washed twice with PBST (phosphate buffered saline supplemented with 0.05% v/v Tween-20 (Fischer Scientific, USA)) and wells were blocked with 100 […] PBSTC (PBST plus 2% v/v chicken serum) for 1 hour, RT. Thereafter, wells were incubated for 1 hour, RT under shaking conditions with HuMab-IL-8 clone 10F8, 20 μg/mL 1:3 diluted in PBSTC. Subsequently, wells were washed thrice with PBST and incubated with either HRP-conjugated rabbit anti-mouse IgG F(ab′)₂ fragments (Jackson; diluted 1:3000 in PBSTC) or HRP-conjugated rabbit anti-human IgG F(ab′)₂ (DAKO, Denmark; diluted 1:2000 in PBSTC) for the detection of mouse or human antibodies, respectively.
Background: ELISA stands for enzyme-linked immunosorbent assay.

The target in a further test is T3, rh-GRO-β (human, UniProt P19875 35-107).
T3 sequence (looked up): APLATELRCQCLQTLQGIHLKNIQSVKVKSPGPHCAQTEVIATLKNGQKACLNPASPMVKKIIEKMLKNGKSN
The experiment in a line: ELISA, plate coated with 1 µg/mL rh-GRO-β, HuMab 10F8 titrated 1:3 from 20 µg/mL, HRP anti-human IgG, A405. Here is the method:
as §2

Test [6] deals with T2, recombinant human IL-8 (form not stated …). Put plainly: competition: varying 10F8 against 0.25 nM [125I]-rhIL-8 binding to IL-8 receptors (CXCR1, CXCR2) on human neutrophils, filter plate, gamma counting; x axis printed 'IL-8 (nM)'. Here is the method:
The ability of HuMab 10F8 to inhibit radiolabeled IL-8 binding to IL-8 receptors (CXCR1 and CXCR2) on neutrophils was assessed as follows:
(§3) Neutrophils were enriched from heparinized whole blood from normal volunteers. The blood was layered on Ficoll-hypaque and centrifuged at 1500 rpm for 30 minutes. The mononuclear cell layer was removed, and erythrocytes were hypotonically lysed. The resulting neutrophils were resuspended in PBS containing 0.1% BSA and 0.02% Na azide (0.1% PBA) and held on ice. The IL-8 binding assay was performed as previously described (Yang et al, (1999) J. Leukoc. Biol. 66:401-410). Briefly, in a final volume of 150 μl, 4×10⁵ neutrophils were incubated from 1.5-3 hours on ice with 0.25 nM [¹²⁵I] recombinant human IL-8 (Amersham Life Sciences, Piscataway, N.J.) along with varying concentrations of 10F8 (hybridoma-derived), 10F8 (transfectoma-derived), mouse anti-human IL-8 mAb 6712.111 R & D Systems, and control antibody. All incubations were performed in 96 well Multiscreen filter plates (Millipore, Bedford, Mass.). Plates were washed extensively with cold 0.1% PBA, and filters were counted on a Wallac gamma counter. Results are shown in FIGS. 7A and 7B, expressed as means of triplicate or quadruplicates. The inhibition of binding is expressed as percentage of control antibody.

The target is the same in test [7]. The experiment in a line: inhibition of 0.25 nM [125I]-IL-8 binding to human neutrophils (CXCR1 and CXCR2), filter plate assay. The method, then: as §3
In the experiment shown in FIG. 7B, the IC₅₀s of 10F8 (hybridoma-derived) (10F8 H) and 10F8 (transfectoma-derived) (10F8 T) were 0.19 nM and 0.30 nM, respectively.

For test [8], the target named is T1, rh-IL-8 72 aa form, monocyte derived. Put plainly: ELISA, plate coated with 1 µg/mL rh-IL-8 72 aa form (curve IL-8Mpeprotec), HuMab 10F8 titrated 1:3 from 20 µg/mL, HRP anti-human IgG, A405. Here is the method:
as §2

Test [9] addresses T2, recombinant human IL-8 (form not stated …). Put plainly: SPR, BIAcore 3000, IL-8 amine-coupled on CM-5 chip, 25° C. The method, then: as §1
The target of test [10] is T4, recombinant human (rh) GRO-α (human, UniProt P09341 35-107).
T4 sequence (looked up): T3 sequence (looked up) with P2S, L3V, L20P, K27N, Q48R, M58I, K68N, N69S, G70D
Put plainly: ELISA, plate coated with 1 µg/mL rh-GRO-α, HuMab 10F8 titrated 1:3 from 20 µg/mL, HRP anti-human IgG, A405. The method, then:
as §2

Another test deals with T5, rh-IP-10 (human, UniProt P02778 22-98).
T5 sequence (looked up): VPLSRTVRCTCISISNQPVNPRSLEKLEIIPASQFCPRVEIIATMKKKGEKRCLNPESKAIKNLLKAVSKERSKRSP
The experiment in a line: ELISA, plate coated with 1 µg/mL rh-IP-10, HuMab 10F8 titrated 1:3 from 20 µg/mL, HRP anti-human IgG, A405. Here is the method: as §2

The target of test [11] is T2, recombinant human IL-8 (form not stated …). Put plainly: SPR, BIAcore 3000, IL-8 amine-coupled on CM-5 chip, 37° C.; half-life of the complex. The method, then:
as §1

The Kd is a measure of binding affinity in units of concentration. Broadly, the koff is the first-order rate constant of dissociation. The kon is the rate constant with which the complex forms. Broadly, the EC50 (read off the curve) is the concentration that produces a half-maximal response. A lower EC50 (read off the curve) goes with a more potent agent. The IC50 is the point on the concentration scale where inhibition reaches its midpoint.

Substitutions are numbered along the chain they refer to.

For “irrelevant human isotype control antibody (Example 8)”, in test [1], the expression level of CD11b on IL-8 stimulated PMN (MFI) amounted to 2400 MFI and the expression of CD62L on IL-8 stimulated PMN (MFI) turned out to be 150 MFI.

Take “mouse anti-human IL-8 mAb 6712.111 (R & D Systems) (antibody)”: the IC50 (read off the curve) in test [2] is 0.5 nM.

B1: HuMab 10F8 (hybridoma-derived), human monoclonal IgG1,κ antibody (antibody, V domains shown)
VH: QVQLVESGGGVVQPGRSLRLSCTASGFTFSHYGMYWVRQAPGKGLEWVAVIWYDGSYEYNEDSVKGRFTISRDNSKNTLYLQMNSLRAEDTAVYYCARDRVGLFDYWGQGTLVTVSS
VL: EIVLTQSPGTLSLSPGERATLSCRASQSISSSYLAWYQQKPGQAPRLLIYGPSSRATGIPDRFSGSGSGTDFTLTISRLEPEDFAVYYCQQYAGSLTFGPGTKVDIK
notes: Purified from hybridoma culture supernatant by Protein A; also called HuMab-IL-8 clone 10F8; HuMab-IL-8 (10F8)
For the molecule B1, the Kd in test [3] worked out at 0.02 nM; in [9] it was 0.01 nM. Moreover, the off-rate (koff) in test [3] came to 5.4e-06 s⁻¹; in test [9], 2.1e-06 s⁻¹. Also, the kon worked out at 275000 M⁻¹ s⁻¹ in [3] and 231000 M⁻¹ s⁻¹ in test [9]. The “Half-life (1n (2/k_off hrs))” value in test [4] was found to be 90.4 h; in test [11], 38.2 h. The “EC50 (read off the curve)” value in test [5] is roughly 0.4 µg/mL; in test [8] it was roughly 0.2 µg/mL. The binding result (with rh-GRO-β; in test [10]; with rh-IP-10) was “no binding (tested: 20 µg/ml)” throughout. For the same molecule, the “IC50 (read off the curve)” value in test [6] is roughly 0.2 nM. Also, the half-maximal inhibitory concentration (IC50) in test [7] came out at 0.19 nM.

B2: 10F8 Fab (Fab fragment prepared from HuMab 10F8 IgG) (Fab, V domains shown)
VH: B1 VH
VL: B1 VL
As to B2, in [3], the Kd came to 0.372 nM, the off-rate (koff) was determined as 3.94e-05 s⁻¹ and the kon turned out to be 106000 M⁻¹ s⁻¹. The “Half-life (1n (2/k_off hrs))” value in [4] stood at 8.3 h. In [9], the equilibrium dissociation constant (Kd) stood at 0.194 nM, the koff turned out to be 1.96e-05 s⁻¹ and the association rate constant (kon) is 101000 M⁻¹ s⁻¹. Moreover, the “Half-life (1n (2/k_off hrs))” value in [11] came out at 4.9 h.

B3: HuMab 10F8 (transfectoma-derived), recombinant 10F8 produced from CHO cells (antibody, V domains shown)
VH: B1 VH
VL: B1 VL
Consider B3, for which, in [7], the IC50 is 0.3 nM.

Values taken from patent US20160280780A1 (CORMORANT PHARMACEUTICALS, published 2016).
